Where a chain is given by its changes, count along the chain named. Several values for one entry are separate records, joined by “and”; a condition that tells them apart may be missing. Identical values can stand only once. Like-named read-outs stand apart in the source and are kept apart here.
How the values were obtained:
cynomolgus IL-23 [1] = target: cynomolgus IL-23 (cynomolgus); experiment: cell-based or functional assay
[2] = target: T1, recombinant human IL-23 (p19/p40) (human, UniProt Q9NPF7 20-189; P29460 23-328); experiment: cell-based or functional assay
T1 sequence (looked up) 1: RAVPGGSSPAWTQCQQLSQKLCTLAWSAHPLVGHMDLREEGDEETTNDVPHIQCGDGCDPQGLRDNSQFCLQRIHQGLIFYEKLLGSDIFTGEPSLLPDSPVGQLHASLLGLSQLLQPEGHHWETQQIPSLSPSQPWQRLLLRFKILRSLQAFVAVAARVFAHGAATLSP
T1 sequence (looked up) 2: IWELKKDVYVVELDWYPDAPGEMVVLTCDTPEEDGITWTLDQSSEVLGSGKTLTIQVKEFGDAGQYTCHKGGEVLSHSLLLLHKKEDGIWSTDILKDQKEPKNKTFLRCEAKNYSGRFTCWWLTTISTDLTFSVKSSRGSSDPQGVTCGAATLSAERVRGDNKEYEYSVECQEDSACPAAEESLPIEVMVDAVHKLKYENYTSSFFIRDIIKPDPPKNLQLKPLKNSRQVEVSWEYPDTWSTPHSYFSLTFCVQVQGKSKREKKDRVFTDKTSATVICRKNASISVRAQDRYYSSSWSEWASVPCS

[3] = target: T1, recombinant human IL-23 (p19/p40); experiment: inhibition ELISA, hIL-23/hIL-23R-Fc
cynomolgus IL-23 [4] = target: cynomolgus IL-23 (cynomolgus); experiment: cell-based or functional assay; remark: listed apart in the source
[5] = target: T1, recombinant human IL-23 (p19/p40); experiment: cell-based or functional assay; remark: listed apart in the source
[6] = target: T1, recombinant human IL-23 (p19/p40); experiment: SPR Biacore 3000, hIL-23 on chip, 100 nM only (indicative)
cynomolgus IL-23 [7] = target: T2, cynomolgus IL-23 (cynomolgus); experiment: alpha-screen, cIL-23/hIL-23R
T2 construct: also called cyno IL-23; cIL-23

cynomolgus IL-23 [8] = target: T2, cynomolgus IL-23; experiment: cell-based or functional assay; remark: listed apart in the source
[9] = target: T1, recombinant human IL-23 (p19/p40); experiment: cell-based or functional assay; remark: listed apart in the source
cynomolgus IL-23 [10] = target: T2, cynomolgus IL-23; experiment: alpha-screen, cIL-23/IL-23R
[11] = target: T1, recombinant human IL-23 (p19/p40); experiment: SPR Biacore, hIL-23; kd1 125-155 s
[12] = target: T1, recombinant human IL-23 (p19/p40); experiment: SPR Biacore 3000, hIL-23 on chip
[13] = target: T1, recombinant human IL-23 (p19/p40); experiment: alpha-screen, hIL-23/IL-23R
[14] = target: T1, recombinant human IL-23 (p19/p40); experiment: alpha-screen, hIL-23/hIL-23R
[15] = target: T1, recombinant human IL-23 (p19/p40); experiment: SPR Biacore, hIL-23; kd2 200-1000 s
[16] = target: T3, native human IL-23 (supernatant of SAC-stimulated THP-1 cells) (human, UniProt Q9NPF7 20-189; P29460 23-328); experiment: cell-based or functional assay
T3 sequence (looked up) 1: T1 sequence (looked up) 1
T3 sequence (looked up) 2: T1 sequence (looked up) 2

[17] = target: T1, recombinant human IL-23 (p19/p40); experiment: cell-based or functional assay; remark: listed apart in the source
cynomolgus IL-23 [18] = target: T2, cynomolgus IL-23; experiment: cell-based or functional assay; remark: listed apart in the source
[19] = target: T1, recombinant human IL-23 (p19/p40); experiment: cell-based or functional assay; remark: listed apart in the source

B1: P23IL119A3 (VHH)
VHH: EVQLVESGGGLVQAGGSLRLSCAASGRIFSLPASGNIFNLLTIAWHRQAPGMQRELVATINSGSRTNYADSVKGRFTISRDNAQKTVYLQMNNLKPEDTAVYYCQTSGSGSPNFWGQGTQVTVSS
notes: p19+ Nanobody
With B1 the “IC50, splenocyte assay cIL-23” value (cynomolgus IL-23 [1]) was 60.5 nM, the “IC50, splenocyte assay hIL-23” value [2] was 16.8 nM and the IC50 [3] was 1.76 nM. The “IC50, splenocyte assay cIL-23” value (cynomolgus IL-23 [4]) was 60.5 nM, the “IC50, splenocyte assay hIL-23” value [5] was 16.8 nM and the Kd [6] was 1.4 nM. For the same binder, the kon [6] was 3.7e+06 M⁻¹ s⁻¹, the IC50 (cynomolgus IL-23 [7]) was 0.5 nM and the “IC50, mouse splenocyte assay (mIL-22)” value (cynomolgus IL-23 [8]) was 37.4 nM. The “IC50, mouse splenocyte assay (mIL-22)” value [9] was 25.5 nM, the IC50 (cynomolgus IL-23 [10]) was 0.42 nM and the koff [11] was 0.0041 s⁻¹. The koff [12] was 0.0048 s⁻¹, the IC50 [13] was 0.76 nM and the IC50 [14] was 1.21 nM. It also gave a koff [15] of 0.0014 s⁻¹.

B2: P23IL119A3-BASIC (VHH)
VHH: B1 VHH with A14P, H46Y, V87L, K95R, Q120L
B2 was tested, and the “IC50, splenocyte assay cIL-23” value (cynomolgus IL-23 [1]) was 66.6 nM, the “IC50, splenocyte assay hIL-23” value [2] was 37.3 nM and the IC50 (cynomolgus IL-23 [7]) was 0.73 nM. The koff [11] was 0.0052 s⁻¹, the IC50 [14] was 1.47 nM and the koff [15] was 0.002 s⁻¹.

B3: P23IL119A3-35GS-81G2 (bispecific antibody)
chain: EVQLVESGGGLVQAGGSLRLSCAASGRIFSLPASGNIFNLLTIAWHRQAPGMQRELVATINSGSRTNYADSVKGRFTISRDNAQKTVYLQMNNLKPEDTAVYYCQTSGSGSPNFWGQGTQVTVSSGGGGSGGGGSGGGGSGGGGSGGGGSGGGGSGGGGSEVQLVESGGGLVQPGGSLRLSCIASGLPFSTKSMGWFRQAPGKEREFVARISPGGTSRYYGDFVKGRFAISRDNAKNTTWLQMNSLKAEDTAVYYCASGERSTYIGSNYYRTNEYDYWGTGTQVTVSS
B3 was tested, and the “IC50, splenocyte assay, 19 pM native hIL-23 (Expt 1)” value [16] was 76 pM and 153 pM, the “IC50, splenocyte assay, 19 pM hIL-23” value [17] was 14 pM and the “IC50, splenocyte assay, 3.8 pM cIL-23” value (cynomolgus IL-23 [18]) was 13 pM. The “IC50, splenocyte assay, 19 pM hIL-23” value [19] was 12 pM.

B4: 23IL0038 (PEG40 form not stated) (bispecific antibody)
chain: EVQLVESGGGLVQAGGSLRLSCAASGRIFSLPASGNIFNLLTIAWHRQAPGMQRELVATINSGSRTNYADSVKGRFTISRDNAQKTVYLQMNNLKPEDTAVYYCQTSGSGSPNFWGQGTQVTVSSGGGGSGGGGSGGGGSGGGGSGGGGSGGGGSGGGGSEVQLVESGGGLVQPGGSLRLSCIASGLPFSTKSMGWFRQAPGKEREFVARISPGGTSRYYGDFVKGRFAISRDNAKNTTWLQMNSLKAEDTAVYYCASGERSTYIGSNYYRTNEYDYWGTGTQVTVSSGGGC
modifications: PEG40 on the C-terminal Cys of GGGC; branched or linear not stated for this assay
notes: also called P23IL0038; 119A3-81G2-PEG40
Binder B4 has an IC50 [3] of 0.032 nM.
